Test results taken from a protein production outcome set (Wang et al. 2014).

Assay: label from the status in PepcDB records

With “MNPAPFLLLGGALAWLTLYLLGGRKVKAGEFILGAIIFPLSITLQNIVQQLPLLWVGIRPDITSLGTSEIIAISIWMGLIAGIFQELFKYIFVRGKSAGYAFSVGLGFAISEVIFITALVTLSAKGGTPSQPFATNLLSLAERYLVVLFHVGTAIMLTQGTRKVLIEVIGLHALIDSMAAYYQLMSAVYIKTNKIYMIPRILLLTEIVLAVITVIVLIASLPKISQVKEEKEEVIW” the protein production was “failed”.

For “EDLSAQPVQTKFPAYERVVLREAGFLRPVTIFGPIADVAREKLAREEPDIYQIAKSEPRDAGTDQRSSGIIRLHTIKQIIDQDKHALLDVTPNAVDRLNYAQWYPIVVFLNPDSKQGVKTMRMRLCPESRKSARKLYERSHKLRKNNHHLFTTTINLNSMNDGWYGALKEAIQQQQNQLVWVSEGKADGAT”, the protein production was “failed”.

In the case of “SAAVKDSCGKGEMATGNGRRLHLGIPEAVFVEDVDSFMKQPGNETADTVLKKLDEQYQKYKFMELNLAQKKGRLKGQIPEIKQTLEILKYMQKKKESTNSMETRFLLADNLYCKASVPPTDKVCLWLGANVMLEYDIDEAQALLEKNLSTATKNLDSLEEDLDFLRDQFTTTEVNMARVYNWDVKRRNKDDSTKNKA”, the protein production is reported as “not failed”.

For “METTQKDELSSFLSVLPPVDFCCVYGSTLHPNNQDKSKMVDYILGVSDPIKWHSANLKMNSDHYASWMVHLGGARLITNVADKVGVGVHFNPFVNWNDRKLKYGVVRMHDLVQDILDWKRFYLSGRLQKPVHMLVDNLDIEDVNSVNKRAAISAALLLLPSKFTEEDLYAKICSLSYMGDLRMFFAEDTNKVNKIVKGQFDLFQSMYKPFLEECETKNLLRFSSAEASHTKLVQDSSLSATRSLVSSLPASVRSQMGKSLGEKKFVSETGRVMGEVCISSREEAAKCMEKVMRRRVMVSSGRQAVSGFLAAGAINATMYLSQKMRKAWNSRA”, the protein production was “failed”.

In the case of “QEGIISLDTEGRVVLMNPKAEEMTGRSQNESCGLPIEDVFILWSPLQDKNQLVAINQCLAEGRHTLLPEGSQLLSSQGERQEIRCSASPIRDRDNLLTGAVVVFQDVTRARHEQRELQYQANHDMLTGLINRRRLEERLNQAISQLGQDEQHILCYVDLDYFKDVNDSAG”, the protein production is reported as “failed”.

In the case of “MKSVNYRLLFSKSIFLGIFFLNIVFAQAQNEKKYIKEGDAAAASGDSKTALNQYLQAYKLNQTNASLNYKIGVQYLKSEYPHKCLSYFESAYKLDPKVDKDILFNLGVAYQENHRFDEAADYFTKYRATLDPSNPFLKKIDRRLYECANGKEFMEKPVDVKIQSVSSVVNSPYSDFAPVISADEKVMIFTSRRPGSTGGSFDENGQYYEDIYISKKIAGQWGAPQNIGSNINTEFHDASIALSADGSELFIYKDDNAGDIYYCKQRADGSWSKPLPIEGSVNSRTYRENAAAVSPDGNTLFFASNREGGYGKLDLYMVKMNDKGFWGKPINLGPTINTEVDDESPFMDFDGMTLYFSSRAHKGMGGLDIFKTYYDSTKGDWTEPINMGYPINSADDDINFVLSGDGGHGYYASAKDDGVGEKDIYMISMPPREDRTKLIEKMKAMHLDAPIADVVPAPTVAAVLLPITIKGVVKDAETGKPMQTVVQLTDENGKLIAEKNVGPDGLYSFTVKNEAATSYTLSTEKEEFGFINKTFSVPGEKTSSQEITQNLALKKLAVGNVYVLRNIYFDFDKATLKSASNKELNNLLQLLKQNPEMEIEISGHTDSKGSDEYNRVLSRKRAQAVVNWLVSKGISKNRLKFEGYGESRPLASNDDELEGRELNRRTEFKILKK”, the protein production is reported as “failed”.

With “MQSDVVLGAAHWVYLLSVVAIILTMVLRANAVVPSVLGTFLVVLAFTGSPIQALVGIFTASFVAAKELFNIFLVITFMTALLNALKVLQADVRMVQPLRRVMTNGHASFLILAGCTYGLSLFFWPTPAVPLVCAILLPAAVAAGLPPLAGAMAIAIAGQGMALSSEYVIGVAPGISAKAAGAAVSAAVVADRALVLSVITGAIALVMTYLFMRKHIVPGDTALLAAWQARAQDGELERIEGSGSFDKAELARGASQPVKGGAEARLAGWSRAFALITPIAFLGVIALMALPRLVPGLPALRGGDAAALVGGVAFMLMMLATLAAEGPRRMLDVCPEHVTDGFVFAFRAMGSVLPIAGFFFIGAAETAAPILGLESGHAPGLLFDLISAAQHLIPENHYLVAFGVLLVGMVTGIDGSGFAGLPLTGTLSGALGPVVGIDPATLAAVGQMGAVWTGGGTLIAWSSLIAVAGFARVHVLDMVRALMLPVLLALSVSTIAAILIWS” the protein production was “failed”.

With “MEELDEKLANRVQVSKRAVAKIVQVIDRLMQRNEKITHVLKGDSLASAGSGSGAGAGGEEEQQQASGDAETTTSSAGVHALEETLKQTHIEIMSENHKLQNLNTSLHEKFHTMSLKMKEYQDAHTAKETENAELKNQIDELQYDLEKIHCRNDKLENHLAEAIEKLKAYHQIYGDPNKSTNSAKTPTTTGSGGATTSVNSQLLEELQKELEEYRELAN” the protein production was “failed”.

In the case of “MTGAETGSHFRRHALDAKPIGMSDHEQTKLIATAMNEGSPQAKALGFTTLEIGDAVALLKVPYRPEIIGDPETGVIAGGVVTTLLDHASGQAVHAAMETWTSIATLDLRIDYMRAAEPGLDVMARAHCYKLTRSVAFVRAVAYDRDPEDPIATGQATFMLDSSAGKKAGANLKPSRQQRSKTGGVDQ”, the protein production is reported as “failed”.

For “MSNRIKNIHYGTQRQQLKNLTKKEYQALREMCFLAKNLYNVGTYNVRQHYFNQGEHLNYEANYHVCKENENYKLLNSNIAQQILKEVDSSFRSFFGLIKLAKEGKYDFRGIKSPKYLDKEGFFSIIIGQIRIKEDGILNVPMSPAFKKLYGKVSIKVPQNILEKKIKEIRIIPKHKARFFEIQYCYEIPKSEEVSNQKNALAIDLGLENLCTCVTNLGDSFIIDGKRLKSVNQWANKQNDKIEALKLKKNITAITRKQFKVWNKRNNQVKDYVNKTCFYIIDYCVKNNIGNLIVGYNAKLEKSDNMERKIYRNFIRIPFGEIKGKLEYLCKIKNINFIRQEESYTSKSDFFADDFLPDINVDNVKKYDFKGERITRGQYKSSVGIIINADVNASLNILKKSQVVNLSNLQNNPQILKQPQRVRIS”, the protein production was “failed”.

With “MTIGYRDAAGDPLFPWLMEIKNSMEDLYAGKNSGYDLDKLLFDCISTYKKDSRYRNDLRFLKIWEDFERVYREIEETEICKGHSLLYEWYAIFLEVKGLWRRANSVYQTGLSRKAEPFDRLKEAHSLFLQRISKRTKASSLEKVGDDAQATDLETGFVNPWETSTVNGLIHKIKPQLVKYDGYHVSNKVFPGKANLSSLQNYSRNKIIEIGILFSYQSSLSPLQDKESFFLL” the protein production was “failed”.

For “MKKILVHGVKEKTPLGFCDVPRKNLLDFLRDMKSISVPNEPRYKPLRKIHQAASDGDTERLQRMISLGKHSVHDRDFKERTALHFACACGQVEVVSILLRNNCDIDAADMNFITPLMKAVQNWTYECVCILLKHGADPNRKDKNGNTSLHYAVSEDNQTLAKCLLKYSANMEQKNKDGFTPLLLALKENKIEMAKFLVKMGANIHVFDDMRRNTLLYAIRWDSKDMVNLLLDEGIDFFFRDVFGWTALRYAIEGTSKGSREILMNYDEMLRRKNKDGIPEYKFFEDKSLDKHPNNPTSGCTFPKSNENACKFDDELDISKYVLGTCPNNIHGAGEEGDKSETKKAADVQVWTNPTLKSSTKGKVPNLNEVGTMTESHHFIKESDLEIESLVETFSYDNEDKQSMSDDGHFSGTTPKWCQNDTNRKITVQDCMYPNLKSPTEGKIPTRSKAGKMAESAHFIIESDLEIESLEETVSCDSEDKQLLV”, the protein production was “failed”.

For “MAVAQADPGSDPAGGARFFCTAGRGLEPFLMREVRARLEATQVEYISGKVFFTTCSDLPSMKKLKSAERLFVLIKKQLPIAVSSLHKGKILNEMQRFVNDDPGSWLEAISLWKKLLEHDPKREKVSQRDANPLKRKAGENETIIAKKLKVEEKQEVAKDHGESQEDKLLQGSPEQGEAVTRTELQDHRLNSTTEKAADAQDQEDLTFRVSCRCTGNVRKVITGQEAGRVIGLALMRQFGWKADLRNPNIEIFMHLSDAYSVVGIPLLRMPLASRTYIQTAGLRSTIAWAMASIAEIKAGALVLDPMCGLGTILVEAAEEWPDVFYMGADMSDAQLLGACDNLKAAGLTDRIELLKSSVTDLPLPSQSTDVIISDIPFGKKFKLGKDIKSILQEMERVLRVGGAMVLLLSEDHHRHLTDCGGSSIPLTSKGHIAEPEMKTLSNPDRTGAPDTASPSQRASSVQCLGRMRPCGSLVPVESFKVSLGKTDAFICKYKKAQASGLSSAECHEPGAHTEMAAMQESPSLQDSL”, the protein production was “failed”.

In the case of “MRRKNLFWDDVYKGTPPWDLDHPQPAFEALIKNGEIKPGRALDIGCGRGENAIILAMNGCDVIGIDLAENAISDAKAKATERHVKVKFVVEDALQMNRLFEEGEFDVVIDSGLFHVMMDEQRRVFAQQVHRVLREGGKYFMLCFSDKEPGEYELPRRLSKAEIESTFSPVFDITYIKEAVFDSLLSPSRRKAYLLSATRSLEHHHHHH”, the protein production is reported as “failed”.

In the case of “KVVKFSYMWTINNFSFCREEMGEVIKSSTFSSGANDKLKWCLRVNPKGLDEESKDYLSLYLLLVSCPKSEVRAKFKFSILNAKGEETKAMESQRAYRFVQGKDWGFKKFIRRDFLLDEANGLLPDDKLTLFCEVSVVQDSVNISGQ”, the protein production is reported as “not failed”.

With “MPGWHAGGKPACRVPLLTKTGRFKRPVFSSSLSATPRFVAALRSTLLYEGAQHMLKLFVRNLPPQTTEAGLKELFTGYGKVFELQLSRDMFTGKARGTASVSMEGHEARKAIEALDGSDYEGKTIYVALDKGPRSGGRGRR” the protein production was “failed”.

In the case of “MKDTFRLENQTIYFGTERAISASPQTIWRYLTETDKLKQWFPELEIGELGVNGFWRFILPDFEETMPFTDYAEEKYLGVTWDTGIIYFDLKEQAPHQTLLVFSESLPENFTTPRHKDIAGWSIVLNRLKQVVETPDAAPEKIDFPQIENHYLEKLTNLEN”, the protein production is reported as “not failed”.

For “MVPQTGRAARATRESGRQTRDALFTAATELFLEHGEGVPITQICAAAGAHPNQVTYYYGSKERLFVEVACAAVLRAGKRAEDDAATAETVGDYTEKLVGSLLGPGAPSVELFTSAMLMTGRRSELRDLITDTLRTLHSSGEVALIRTLMRTGWQLRAGIDVESKAFWSAIFGLVIQKTATGESFGYSLEEAVAVIFANLQIPETVRNTSID”, the protein production was “not failed”.

In the case of “MLIALLLISYQLIKHGYRAADIKNLYTILEGEELRRQKDLSAKLRWGIVDEILWTIIVANGAILFTAHYVLIGLKILDLIAIFVVMLSGVMLYAPLAFLFLYPVVRAFEKNFPPSNPQFLLSHGLICTVSSLIVYEKLEQLWWDPLLVGFFWIAAGFVSFFTNRRFEVLVFLLLIAPLALLSVKCPGAILPILLAKSECSLRIQATFLVKLAVLIFASLAAVALVLQVFGYKSLRELSEKRKAAIKQGKYNPLRDPIIWIAWIMLTSLGLLIASFMERGEISPNML”, the protein production is reported as “failed”.

For “MRQKETTATTRFSLLPGSITRFFLLLIIVLLVTMGVMVQSAVNAWLKDKSYQIVDITHAIQKRVDNWRYVTWQIYDNIAATTSPSSGEGLQETRLKQDVYYLEKPRRKTEALIFGSHDNSTLEMTQRMSTYLDTLWGAENVPWSMYYLNGQDNSLVLISTLPLKDLTSGFKESTVSDIVDSRRAEMLQQANALDERESFSNMRRLAWQNGHYFTLRTTFNQPGHLATVVAFDLPINDLIPPGMPLDSFRLEPDATATGNNDNEKEGTDSVSIHFNSTKIEISSALNSTDMRLVWQVPYGTLLLDTLQNILLPLLLNIGLLALALFGYTTFRHFSSRSTENVPSTAVNNELRILRAINEEIVSLLPLGLLVHDQESNRTVISNKIADHLLPHLNLQNITTMAEQHQGIIQATINNELYEIRMFRSQVAPRTQIFIIRDQDREVLVNKKLKQAQRLYEKNQQGRMIFMKNIGDALKEPAQSLAESAAKLNAPESKQLANQADVLVRLVDEIQLANMLADDSWKSETVLFSVQDLIDEVVPSVLPAIKRKGLQLLINNHLKAHDMRRGDRDALRRILLLLMQYAVTSTQLGKITLEVDQDESSEDRLTFRILDTGEGVSIHEMDNLHFPFINQTQNDRYGKADPLAFWLSDQLARKLGGHLNIKTRDGLGTRYSVHIKMLAADPEVEEEEERLLDDVCVMVDVTSAEIRNIVTRQLENWGATCITPDERLISQDYDIFLTDNPSNLTASGLLLSDDESGVREIGPGQLCVNFNMSNAMQEAVLQLIEVQLAQEEVTESPLGGDENAQLHASGYYALFVDTVPDDVKRLYTEAATSDFAALAQTAHRLKGVFAMLNLVPGKQLCETLEHLIREKDVPGIEKYISDIDSYVKSLL”, the protein production was “failed”.
